How the values were obtained:
Experiment in all cases: protein array
[1] = target: T1, synaptotagmin 12, transcript variant X4 (human, UniProt Q8IV01 1-421)
T1 construct: on protein array; also called SYT12
T1 sequence: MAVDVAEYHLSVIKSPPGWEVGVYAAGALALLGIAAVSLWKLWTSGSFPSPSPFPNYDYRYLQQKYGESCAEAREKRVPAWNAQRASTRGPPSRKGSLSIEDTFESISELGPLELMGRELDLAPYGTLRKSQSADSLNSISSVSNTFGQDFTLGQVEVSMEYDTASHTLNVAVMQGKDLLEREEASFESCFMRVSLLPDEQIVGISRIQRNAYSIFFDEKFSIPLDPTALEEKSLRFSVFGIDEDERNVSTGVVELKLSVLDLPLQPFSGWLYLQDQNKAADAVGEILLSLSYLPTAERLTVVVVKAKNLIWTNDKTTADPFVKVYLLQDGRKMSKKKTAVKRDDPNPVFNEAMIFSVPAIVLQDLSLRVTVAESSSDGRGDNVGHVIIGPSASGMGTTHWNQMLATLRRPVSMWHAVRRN

[2] = target: T2, glycogen phosphorylase L, transcript variant 1 (human, UniProt P06737 2-847)
T2 construct: on protein array; also called PYGL
T2 sequence: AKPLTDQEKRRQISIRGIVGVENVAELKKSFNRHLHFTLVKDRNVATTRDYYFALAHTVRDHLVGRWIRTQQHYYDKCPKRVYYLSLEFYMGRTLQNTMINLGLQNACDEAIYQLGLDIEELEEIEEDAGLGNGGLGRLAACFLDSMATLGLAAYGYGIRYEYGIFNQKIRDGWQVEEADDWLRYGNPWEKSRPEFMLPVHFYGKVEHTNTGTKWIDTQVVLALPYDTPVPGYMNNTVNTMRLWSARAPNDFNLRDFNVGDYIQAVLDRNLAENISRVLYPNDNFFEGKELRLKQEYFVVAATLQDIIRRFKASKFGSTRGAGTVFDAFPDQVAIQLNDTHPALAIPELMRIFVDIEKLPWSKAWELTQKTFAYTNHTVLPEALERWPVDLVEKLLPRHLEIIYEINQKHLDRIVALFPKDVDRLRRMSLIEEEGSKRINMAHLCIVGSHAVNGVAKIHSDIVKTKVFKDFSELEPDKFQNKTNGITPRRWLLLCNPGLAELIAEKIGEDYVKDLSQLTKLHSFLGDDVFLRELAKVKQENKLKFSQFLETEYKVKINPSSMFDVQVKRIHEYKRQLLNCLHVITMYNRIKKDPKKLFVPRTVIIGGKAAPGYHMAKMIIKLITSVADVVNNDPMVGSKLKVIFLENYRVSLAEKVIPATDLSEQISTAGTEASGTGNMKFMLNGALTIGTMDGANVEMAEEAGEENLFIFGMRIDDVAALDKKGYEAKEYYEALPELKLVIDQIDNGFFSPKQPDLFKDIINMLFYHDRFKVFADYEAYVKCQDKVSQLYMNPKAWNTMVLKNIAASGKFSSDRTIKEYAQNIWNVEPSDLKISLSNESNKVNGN

[3] = target: T3, Reticulocalbin 3 (human, UniProt Q96D15 21-328)
T3 construct: on protein array; also called RCN3
T3 sequence: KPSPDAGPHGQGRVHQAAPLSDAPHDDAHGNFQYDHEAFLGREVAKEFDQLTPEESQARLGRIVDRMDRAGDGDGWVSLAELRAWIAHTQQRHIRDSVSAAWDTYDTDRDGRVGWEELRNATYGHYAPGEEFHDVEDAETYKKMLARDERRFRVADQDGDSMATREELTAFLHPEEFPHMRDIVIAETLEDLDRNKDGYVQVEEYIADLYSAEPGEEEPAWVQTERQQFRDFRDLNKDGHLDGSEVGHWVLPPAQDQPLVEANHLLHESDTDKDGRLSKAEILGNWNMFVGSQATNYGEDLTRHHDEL

[4] = target: T4, BAR/IMD domain containing adaptor protein 2, transcript variant 3 (human, UniProt Q9UQB8 1-511)
T4 construct: on protein array; also called BAIAP2
T4 sequence: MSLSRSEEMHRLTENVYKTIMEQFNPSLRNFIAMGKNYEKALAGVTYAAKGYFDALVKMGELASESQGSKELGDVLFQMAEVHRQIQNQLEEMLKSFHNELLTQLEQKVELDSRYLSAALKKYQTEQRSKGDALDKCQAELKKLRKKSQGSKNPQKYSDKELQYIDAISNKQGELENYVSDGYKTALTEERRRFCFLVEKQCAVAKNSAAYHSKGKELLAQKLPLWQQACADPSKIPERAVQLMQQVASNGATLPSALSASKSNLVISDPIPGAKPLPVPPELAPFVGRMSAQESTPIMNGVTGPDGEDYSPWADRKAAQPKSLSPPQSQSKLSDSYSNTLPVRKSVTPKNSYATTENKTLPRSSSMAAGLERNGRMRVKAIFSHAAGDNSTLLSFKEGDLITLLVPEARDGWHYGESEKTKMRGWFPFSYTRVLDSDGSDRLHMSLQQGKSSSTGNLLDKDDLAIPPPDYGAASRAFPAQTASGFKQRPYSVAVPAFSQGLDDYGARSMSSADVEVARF

[5] = target: T5, homeobox and leucine zipper encoding (human, UniProt Q8IX15 25-550)
T5 construct: on protein array; also called HOMEZ
T5 sequence: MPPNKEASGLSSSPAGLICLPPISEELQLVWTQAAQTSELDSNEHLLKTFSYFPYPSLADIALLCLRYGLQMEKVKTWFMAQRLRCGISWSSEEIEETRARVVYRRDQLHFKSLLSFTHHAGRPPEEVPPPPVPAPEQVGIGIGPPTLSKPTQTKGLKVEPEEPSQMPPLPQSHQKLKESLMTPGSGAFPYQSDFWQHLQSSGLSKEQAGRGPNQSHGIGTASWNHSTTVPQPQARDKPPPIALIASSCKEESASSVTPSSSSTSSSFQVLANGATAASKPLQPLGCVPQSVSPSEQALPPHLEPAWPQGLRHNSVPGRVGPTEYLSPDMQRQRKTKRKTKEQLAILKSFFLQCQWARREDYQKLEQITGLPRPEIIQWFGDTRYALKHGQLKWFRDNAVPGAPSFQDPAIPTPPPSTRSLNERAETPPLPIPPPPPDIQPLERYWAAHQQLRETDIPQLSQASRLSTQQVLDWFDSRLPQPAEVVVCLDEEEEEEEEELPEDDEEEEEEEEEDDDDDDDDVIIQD

[6] = target: T6, growth factor receptor bound protein 2, transcript variant 1 (human, UniProt P62993 1-217)
T6 construct: on protein array; also called GRB2

[7] = target: T7, leucine rich repeat containing 28, transcript variant 1 (human, UniProt Q86X40 1-367)
T7 construct: on protein array; also called LRRC28
T7 sequence (Q86X40 whole entry, change not shown): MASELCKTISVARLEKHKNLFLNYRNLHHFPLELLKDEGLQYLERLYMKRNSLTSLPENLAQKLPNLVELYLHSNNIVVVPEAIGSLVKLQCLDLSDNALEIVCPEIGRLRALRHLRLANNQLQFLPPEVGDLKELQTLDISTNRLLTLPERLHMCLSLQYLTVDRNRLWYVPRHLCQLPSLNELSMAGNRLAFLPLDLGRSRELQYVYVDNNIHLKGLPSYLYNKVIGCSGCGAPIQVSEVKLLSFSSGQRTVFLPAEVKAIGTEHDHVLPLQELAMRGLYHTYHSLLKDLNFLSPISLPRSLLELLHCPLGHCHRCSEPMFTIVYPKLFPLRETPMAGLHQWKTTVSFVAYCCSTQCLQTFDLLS

[8] = target: T8, teashirt zinc finger homeobox 2, transcript variant 1 (human, UniProt Q9NRE2 1-1034)
T8 construct: on protein array; also called TSHZ2
T8 sequence: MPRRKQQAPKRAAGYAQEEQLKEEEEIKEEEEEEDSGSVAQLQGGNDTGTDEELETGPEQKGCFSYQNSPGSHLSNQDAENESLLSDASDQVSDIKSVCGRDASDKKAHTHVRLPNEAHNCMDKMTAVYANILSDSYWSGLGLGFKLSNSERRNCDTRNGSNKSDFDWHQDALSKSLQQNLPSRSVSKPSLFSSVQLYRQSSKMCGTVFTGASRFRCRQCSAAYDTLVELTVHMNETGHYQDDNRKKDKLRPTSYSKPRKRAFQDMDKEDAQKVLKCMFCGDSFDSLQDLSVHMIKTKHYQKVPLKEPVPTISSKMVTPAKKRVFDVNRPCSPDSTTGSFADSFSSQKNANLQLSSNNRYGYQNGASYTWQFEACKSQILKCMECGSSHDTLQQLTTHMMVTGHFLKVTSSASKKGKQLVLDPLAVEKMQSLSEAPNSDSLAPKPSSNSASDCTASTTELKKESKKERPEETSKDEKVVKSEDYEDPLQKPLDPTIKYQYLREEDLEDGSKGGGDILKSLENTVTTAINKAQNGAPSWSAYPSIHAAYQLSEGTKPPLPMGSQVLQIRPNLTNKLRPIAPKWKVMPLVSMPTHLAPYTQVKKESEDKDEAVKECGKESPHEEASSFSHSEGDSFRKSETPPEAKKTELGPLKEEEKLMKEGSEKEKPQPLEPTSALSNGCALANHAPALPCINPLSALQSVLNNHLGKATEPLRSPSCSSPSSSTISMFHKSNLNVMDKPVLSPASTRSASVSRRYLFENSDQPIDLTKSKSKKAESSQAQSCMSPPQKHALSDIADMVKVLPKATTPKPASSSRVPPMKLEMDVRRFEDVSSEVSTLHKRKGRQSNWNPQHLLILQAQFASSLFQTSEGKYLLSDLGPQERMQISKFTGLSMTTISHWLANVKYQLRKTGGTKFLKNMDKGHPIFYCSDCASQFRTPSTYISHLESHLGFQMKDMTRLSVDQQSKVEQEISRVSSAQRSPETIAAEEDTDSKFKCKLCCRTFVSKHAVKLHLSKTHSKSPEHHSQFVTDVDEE

[9] = target: T9, Atpase secretory pathway ca2+ transporting 1 (human, UniProt P98194 1-909)
T9 construct: on protein array; also called ATP2C1
T9 sequence: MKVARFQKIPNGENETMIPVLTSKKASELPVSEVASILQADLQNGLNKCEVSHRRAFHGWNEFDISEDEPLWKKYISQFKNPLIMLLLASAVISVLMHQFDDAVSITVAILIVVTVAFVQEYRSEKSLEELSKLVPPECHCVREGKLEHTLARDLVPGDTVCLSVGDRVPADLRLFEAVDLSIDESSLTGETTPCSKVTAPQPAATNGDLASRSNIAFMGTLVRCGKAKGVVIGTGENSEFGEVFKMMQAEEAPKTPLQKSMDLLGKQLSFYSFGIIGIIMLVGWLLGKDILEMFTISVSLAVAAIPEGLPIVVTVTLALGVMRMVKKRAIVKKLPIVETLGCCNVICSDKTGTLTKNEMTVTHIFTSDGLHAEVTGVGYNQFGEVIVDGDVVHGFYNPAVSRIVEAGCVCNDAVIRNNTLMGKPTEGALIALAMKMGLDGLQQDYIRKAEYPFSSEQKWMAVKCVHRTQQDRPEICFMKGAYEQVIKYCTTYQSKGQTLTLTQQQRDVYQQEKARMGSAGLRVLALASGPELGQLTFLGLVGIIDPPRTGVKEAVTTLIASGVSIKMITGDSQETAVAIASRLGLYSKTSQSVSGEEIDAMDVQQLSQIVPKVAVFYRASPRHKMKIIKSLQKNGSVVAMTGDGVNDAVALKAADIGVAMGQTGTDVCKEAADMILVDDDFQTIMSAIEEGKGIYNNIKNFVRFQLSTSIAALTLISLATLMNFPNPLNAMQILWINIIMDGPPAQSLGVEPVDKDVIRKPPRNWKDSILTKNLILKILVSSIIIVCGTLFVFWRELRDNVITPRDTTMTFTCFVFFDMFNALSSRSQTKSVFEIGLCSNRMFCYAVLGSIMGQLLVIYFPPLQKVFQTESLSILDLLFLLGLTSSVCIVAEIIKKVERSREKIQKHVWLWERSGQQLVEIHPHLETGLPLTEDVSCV

B1: TBLA1007 (antibody, V domains shown)
VH: QVQLVQSGAEVKKPGASVKVSCKASGYTFTNYGFSWVRQAPGQGLEWMGRITTYNRDTIYAQKFQGRVTMTTDTSTSTAYMELRSLRSDDTAVYFCARVVPGDSVYGAFDIWGQGTMVTVSS
VL: DIQMTQSPSSLSASVGDRVTITCRASQSISSYLNWYQQKPGRAPRLLIYAASRLQIGVPSRFSGSGSGTDFTLTISSLQPEDFATYYCQQSYRMPCSFGQGTKLEI
notes: VH/VL only
binding result [1]: binds | binding result [2]: binds | binding result [3]: binds

B2: TCOL1006 (antibody, V domains shown)
VH: EVQLVESGGGLVQPGGSLRLSCAASGFPPRSFAMSWVRQAPGKGLEWVSSISGLGNSIYYAESVKGRFITSRDNSKSTVFLLMNSLRAEDTAVYYCAKSAFGGVPDGFDIWGQGTMVTVSS
VL: QSVVTQPPSASGPPGQTVTISCSGGRSNVASHAVHWYQHLPGTAPKLLIYNDHQRPSGVPDRFSGSKSGPSASLAISGLRSEDEADYYCATWDDSLGGRVVFGGGTKLTVLG
notes: VH/VL only
binding result [4]: binds | binding result [5]: binds

B3: TCOL1009 (antibody, V domains shown)
VH: PVQLVQSGAEVKKPGASVKVSCKASGDTFPNYVISWVRQAPGQGLEWVGCINTNNGKTNYVQKLQGRVILTTDTSTNTANMELRSLRFDDTAVYYCARERGQVRSYGMDVWGQGTAVTVSS
VL: PYELTQPPSVSVSPGQTANITCSGDKLGDICVCWYQQKPGQSPVLVIYQHNKRPSGIPERFSGSNSGNTATLTISATQATDEAIYYCQSWDSSSVLFGGGTKLTVLG
notes: VH/VL only
binding result [6]: binds

B4: TESO1003 (antibody, V domains shown)
VH: QVQLVESGGGVVQPGRSLRLSCAASGFTFSNYDMHWVRQAPGKGLEWVTVVSYDGTNKYYAESVQGRFTISRDNSKNTLYLQMNSLRTEDTAVYYCAKEGGWGNTVTTSYYYYGMDVWGQGTTVTVSS
VL: QIVLTQSPATLSLSPGERATLSCRASQSVSNYLAWYQQKPGQAPRLLIYDASNRATGIPARFSGSGSGTDFTLTISSLEPEDFAVYYCQQRSNWPPYTFGQGTKLDIKR
notes: VH/VL only
binding result [7]: binds

B5: TESO1006 (antibody, V domains shown)
VH: QLHLQESGPGLVKPSETLSLTCTVSGGSVSSSSYYWGWVRQPPGKGLEWIGHVYYSGRTYYNPSLKSRATISLDTSKNQFSLKLSSLTATDTAVYYCATIVAAYSYGFEFDPWGQGILVIVSS
VL: QSVLTQPPSVSAAPGQKVTISCSGGSSNIGNNYVSWYQQLPGTAPKLIIYDNDKRPAGIPDRFSGSKSGSSATLGITGLQNGDEAEYYCGTWDSSLGGGVFGGGTKVTVLG
notes: VH/VL only
binding result [8]: binds | binding result [9]: binds
